Biological target: PCNA (Proliferating Cell Nuclear Antigen) (UniProt P12004)
Experiment: PCNA-bead pull-down, anti-FEN1 blot
Details: reference: wild type, kinase-treated; sites S187

binding against the reference: stronger
Substance: FEN1 (flap endonuclease 1) (from UniProt P39748) S187A, kinase-treated
